Measured values reported in patent publication EP4339209A1 (MediMabbio Inc., dated 2024).
Values belong to the binder of their own block, whether it stands above or below them.

Key:
[1] = target: T1, human GITR expressed on human primary immune cells (T cells, NK cells, NKT cells of PBMC) (human, UniProt Q9Y5U5 26-241); assay: flow cytometry, AF488-labelled antibody on activated human PBMC
T1 construct: Native GITR of donor PBMC; also called hGITR in human primary immune cells; GITR on the surface of immune cells
T1 sequence: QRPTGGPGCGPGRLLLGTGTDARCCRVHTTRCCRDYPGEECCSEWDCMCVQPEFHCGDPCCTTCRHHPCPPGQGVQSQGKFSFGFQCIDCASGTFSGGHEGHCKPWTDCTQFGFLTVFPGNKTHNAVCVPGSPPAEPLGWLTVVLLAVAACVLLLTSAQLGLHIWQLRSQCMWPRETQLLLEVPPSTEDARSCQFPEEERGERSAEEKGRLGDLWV

[2] = target: recombinant human GITR (Cat No. 13643-H08H, Lot No. LC12JA2509, Sino Biological) (human) (UniProt Q9Y5U5); assay: SPR Biacore 8K, multi-cycle kinetics, purified IgG captured on Protein A, GITR as analyte
[3] = target: recombinant human GITR (Cat No. 13643-H08H, Lot No. LC12JA2509, Sino Biological) (human) (UniProt Q9Y5U5); assay: SPR Biacore 8K, single-cycle kinetics, IgG in supernatant captured on Protein A, GITR as analyte
[4] = target: T2, hGITR (including His tag; Cat. GIR-H5228, Acrobiosystems) (human, UniProt Q9Y5U5 26-162); assay: DSS cross-linking of the GITR/51B complex, nLC-orbitrap MS/MS
T2 construct: Bought protein; not shown: His tag
T2 sequence: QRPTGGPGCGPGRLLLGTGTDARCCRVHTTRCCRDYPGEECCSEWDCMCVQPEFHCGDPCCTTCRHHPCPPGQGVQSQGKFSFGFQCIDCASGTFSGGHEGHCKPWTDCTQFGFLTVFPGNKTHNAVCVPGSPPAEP

binding result [1]: binds
Kd [2]: 0.675 nM
Relative KD (fold vs VH0/VL0) [2]: 1.19
koff [2]: 0.00043 s⁻¹
kon [2]: 636000 M⁻¹ s⁻¹
Kd [3]: 0.758 nM
Relative KD (fold vs VH0/VL0) [3]: 1.3
koff [3]: 0.000467 s⁻¹
kon [3]: 616000 M⁻¹ s⁻¹
B1: anti-GITR 51B VH3/VL4 humanized antibody (human IgG1, kappa) (antibody, V domains shown)
VH: QVQLVQSGAEVKKPGASVKVSCKTTGYRFTGYWIEWVRQPPGKGLEWIGEILPGSGATYYSENFKGKVTITADTSTDTAYMELSSLRSEDTAIYYCARKGGYYAMDYWGQGTLVTVSS
VL: EIVLTQSPATLSLSPGERATLSCTASSSVSSSYFHWYQQKPGKAPKLWIYSTSNLQSGVPDRFSGSGSGTDYTLTISSLQAEDVATYYCHLYHRSPRTFGGGTKVEIKR
notes: also called VH3/Vk4; 51B VH3/Vk4

binding result [1]: binds
Kd [2]: 0.57 nM
Relative KD (fold vs VH0/VL0) [2]: 1
koff [2]: 0.000314 s⁻¹
kon [2]: 552000 M⁻¹ s⁻¹
Kd [3]: 0.566 nM
Relative KD (fold vs VH0/VL0) [3]: 1
koff [3]: 0.000334 s⁻¹
kon [3]: 590000 M⁻¹ s⁻¹
B2: anti-GITR 51B VH0/VL0 chimeric antibody (human IgG1, kappa) (antibody, V domains shown)
VH: QVQLQQSGAELMKPGASVKLSCKTTGYRFTGYWIEWVKQRPGHGLEWIGEILPGSGATYYSENFKGKATFTADTSSNTAYMQVSSLTTGDSAIYYCARKGGYYAMDYWGQGTSVTVSS
VL: QIVLTQSPAIMSASLGERVTMTCTASSSVSSSYFHWYQQKPGSSPKLWIYSTSNLASGVPARFSGSGSGTSYSLTVSSLEAEDAATYYCHLYHRSPRTFGGGTTLDIKR
notes: Chimeric antibody; also called VH0/Vk0; 51B VH0/Vk0

binding result [4]: binds
B3: 51B antibody (as used in the epitope mapping, Example 1.7) (antibody, V domains shown)
VH: B2 VH
VL: QIVLTQSPAIMSASLGERVTMTCTASSSVSSSYFHWYQQKPGSSPKLWIYSTSNLASGVPARFSGSGSGTSYSLTVSSLEAEDAATYYCHLYHRSPRTFGGGTTLDIK
notes: also called anti-GITR monoclonal antibody (51B clone)
